Measured values from patent US20230151437A1 (Harvard, published 2023).

B1: HaloTag-iPAK4 (other)
chain: MIGTGFPFDPHYVEVLGERMHYVDVGPRDGTPVLFLHGNPTSSYVWRNIIPHVAPTHRCIAPDLIGMGKSDKPDLGYFFDDHVRFMDAFIEALGLEEVVLVIHDWGSALGFHWAKRNPERVKGIAFMEFIRPIPTWDEWPEFARETFQAFRTTDVGRKLIIDQNVFIEGTLPMGVVRPLTEVEMDHYREPFLNPVDREPLWRFPNELPIAGEPANIVALVEEYMDWLHQSPVPKLLFWGTPGVLIPPAEAARLAKSLPNCKAVDIGPGLNLLQEDNPDLIGSEIARWLSTLEISGEPTTSGSEAEDWTAALLNRGRSRQPLVLGDNCFADLVHNWMELPEEFPAAPAVPGPPGPRSPQREPQRVSHEQFRAALQLVVDPGDPRSYLDNFIKIGEGSTGIVCIATVRSSGKLVAVKKMDLRKQQRRELLFNEVVIMRDYQHENVVEMYNSYLVGDELWVVMEFLEGGALTDIVTHTRMNEEQIAAVCLAVLQALSVLHAQGVIHRDIKSDSILLTHDGRVKLSDFGFCAQVSKEVPRRKSLVGTPYWMAPELISRLPYGPEVDIWSLGIMVIEMVDGEPPYFNEPPLKAMKMIRDNLPPRLKNLHKVSPSLKGFLDRLLVRDPAQRATAAELLKHPFLAKAGPPASIVPLMRQNRTR
notes: also called HT-iPAK4; CMV::HT-iPAK4
B2: iPAK4 (fusion of the catalytic domain of the Pak4 kinase and the 38 amino acid iBox domain of its inhibitor Inka1) (other)
chain: MDYKDDDDKSGSEAEDWTAALLNRGRSRQPLVLGDNCFADLVHNWMELPEEFPAAPAVPGPPGPRSPQREPQRVSHEQFRAALQLVVDPGDPRSYLDNFIKIGEGSTGIVCIATVRSSGKLVAVKKMDLRKQQRRELLFNEVVIMRDYQHENVVEMYNSYLVGDELWVVMEFLEGGALTDIVTHTRMNEEQIAAVCLAVLQALSVLHAQGVIHRDIKSDSILLTHDGRVKLSDFGFCAQVSKEVPRRKSLVGTPYWMAPELISRLPYGPEVDIWSLGIMVIEMVDGEPPYFNEPPLKAMKMIRDNLPPRLKNLHKVSPSLKGFLDRLLVRDPAQRATAAELLKHPFLAKAGPPASIVPLMRQNRTR
notes: also called ibox-PAK4cat; CMV::iPAK4

What was measured:
[1] = target: B2; assay: co-expression in HEK cells; fluorescence imaging of HT-iPAK4 incorporated into iPAK4 assemblies
Description: To assess the suitability of iPAK4 assemblies as a recording medium, a detailed characterization of their nucleation and growth was performed. CMV::iPAK4 (90%), CMV::eGFP-iPAK4 (5%), and CMV::HT-iPAK4 (5%) were co-expressed in HEK cells using lentiviral transduction, and JF₆₆₉ was added to the medium to label the HT. Time-lapse video microscopy was recorded over a 13 hour interval starting 1 hour after transfection, and over 43 hours starting 20 hours after transfection. The fluorescence of the cytoplasm and the growth of individual assemblies was then tracked. Initially, green (eGFP) and red (HT-JF₆₆₉) fluorescence accumulated in the cytoplasm. Upon nucleation, assemblies grew quickly (˜0.5 μm/min) at first, while the cytoplasmic fluorescence dropped. This phase typically lasted approximately 1 h. The assemblies then transitioned to slower linear growth (FIG. 1E). […] A simple mass-action kinetic model predicted the two-phase growth profiles and quantitatively reproduced the observed growth profiles (Calculation 1, FIGS. 7A-7E).

[2] = target: the molecule itself; assay: time-lapse fluorescence microscopy of intracellular self-assembly in cultured rat hippocampal neurons

Row | binding result [1] | Binder | binding result [2]
1 | binds | B1 | –
2 | – | B2 | binds
